According to patent US20180369326A1 (LA JOLLA INSTITUTE FOR ALLERGY AND IMMUNOLOGY, published 2018):
Substitutions are numbered along the chain they refer to. Values belong to the molecule of their own block, whether it stands above or below them.

Tests used:
[1] = molecular target: WT ICOS (wild-type inducible T-cell costimulator, transfected into Jurkat JTAg T cells) (Homo sapiens (Human)) (UniProt Q9Y6W8); assay: SILAC mass spectrometry of anti-ICOS IPs from Jurkat cells expressing WT ICOS or mIProx, stimulated with anti-CD3 plus anti-ICOS
[2] = molecular target: T1, WT ICOS (wild-type inducible T-cell costimulator, transfected into Jurkat JTAg T cells) (Homo sapiens (Human), UniProt Q9Y6W8 21-199); assay: as above
T1 sequence: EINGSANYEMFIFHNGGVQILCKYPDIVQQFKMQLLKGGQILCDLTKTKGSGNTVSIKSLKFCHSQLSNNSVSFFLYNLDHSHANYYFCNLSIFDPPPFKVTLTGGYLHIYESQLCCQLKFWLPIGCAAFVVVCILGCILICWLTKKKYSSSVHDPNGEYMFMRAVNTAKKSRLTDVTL

[3] = molecular target: T2, p85α, the regulatory subunit of PI3K, endogenous, Jurkat cells (human, UniProt P27986 2-724); assay: co-IP (anti-ICOS IP, immunoblot), transfected Jurkat cells stimulated with anti-CD3 plus anti-ICOS (FIG. 2b, 2c)
T2 construct: Species follows from the human cell line; also called p85a
Text: IPs or whole cell lysates (WCL) were immunoblotted with the indicated Abs. 5% WCL was used as input to control for IP Western. […] Jurkat T cells transfected with WT ICOS, mIProx, YF or tailless (TL) ICOS plasmids were stimulated with anti-CD3 plus −ICOS mAbs prior to IP and immunoblotting. […] In vitro activated primary mouse CD4⁺ T cells were stimulated with anti-CD3 plus the indicated costimulatory mAbs, and IP or WCL were subjected to immunoblotting with the indicated Abs. Shown are representative of three experiments.
The human leukemic Jurkat T cell line, JTAg, was previously described (Li, J et al. J Immunol 2013, 191(1): 200-207; Rolf J et al., J Immunol 2010, 185(7): 4042-4052) and the HEK 293T cell line was obtained from ATCC. These cell lines have not been recently STR profiled but tested negative for mycoplasma contamination. JTAg cells in logarithmic growth phase were transfected with plasmid DNAs by electroporation and incubated for 24 hours.

T2 sequence (P27986 2-724): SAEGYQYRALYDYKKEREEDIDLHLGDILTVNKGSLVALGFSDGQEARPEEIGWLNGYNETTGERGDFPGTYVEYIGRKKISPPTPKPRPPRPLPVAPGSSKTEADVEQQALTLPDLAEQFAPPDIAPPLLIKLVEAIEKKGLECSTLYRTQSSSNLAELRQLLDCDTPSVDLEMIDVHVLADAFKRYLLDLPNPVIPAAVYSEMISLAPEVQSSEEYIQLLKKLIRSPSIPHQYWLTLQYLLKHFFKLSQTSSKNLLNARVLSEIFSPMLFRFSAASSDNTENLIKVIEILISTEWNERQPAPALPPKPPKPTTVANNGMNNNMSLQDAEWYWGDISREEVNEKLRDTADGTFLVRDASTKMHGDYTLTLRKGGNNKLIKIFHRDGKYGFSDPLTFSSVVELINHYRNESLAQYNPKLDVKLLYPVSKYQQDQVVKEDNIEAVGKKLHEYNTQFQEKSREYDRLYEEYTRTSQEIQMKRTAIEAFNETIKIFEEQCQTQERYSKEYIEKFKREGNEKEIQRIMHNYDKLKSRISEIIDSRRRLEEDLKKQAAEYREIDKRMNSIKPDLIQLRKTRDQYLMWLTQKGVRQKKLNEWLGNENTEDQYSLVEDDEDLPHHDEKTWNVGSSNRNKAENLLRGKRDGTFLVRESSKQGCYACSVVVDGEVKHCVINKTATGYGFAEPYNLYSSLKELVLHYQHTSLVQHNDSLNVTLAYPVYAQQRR

Molecule: MYCBP2 (E3 ligase), endogenous, Jurkat cells (from UniProt O75592 1-4678) (enzyme)
Fold Change (differential binding ratio, WT ICOS IP vs mIProx ICOS IP) [1]: 5.26 fold

Molecule: BAG6 (chaperone), endogenous, Jurkat cells (from UniProt P46379 1-1132)
Fold Change (differential binding ratio, WT ICOS IP vs mIProx ICOS IP) [1]: 3.13 fold

B1: TANK-binding kinase 1 (TBK1), endogenous, human cell lines (Jurkat JTAg, HEK293T) (enzyme, UniProt Q9UHD2 1-729, looked up)
chain: MQSTSNHLWLLSDILGQGATANVFRGRHKKTGDLFAIKVFNNISFLRPVDVQMREFEVLKKLNHKNIVKLFAIEEETTTRHKVLIMEFCPCGSLYTVLEEPSNAYGLPESEFLIVLRDVVGGMNHLRENGIVHRDIKPGNIMRVIGEDGQSVYKLTDFGAARELEDDEQFVSLYGTEEYLHPDMYERAVLRKDHQKKYGATVDLWSIGVTFYHAATGSLPFRPFEGPRRNKEVMYKIITGKPSGAISGVQKAENGPIDWSGDMPVSCSLSRGLQVLLTPVLANILEADQEKCWGFDQFFAETSDILHRMVIHVFSLQQMTAHKIYIHSYNTATIFHELVYKQTKIISSNQELIYEGRRLVLEPGRLAQHFPKTTEENPIFVVSREPLNTIGLIYEKISLPKVHPRYDLDGDASMAKAITGVVCYACRIASTLLLYQELMRKGIRWLIELIKDDYNETVHKKTEVVITLDFCIRNIEKTVKVYEKLMKINLEAAELGEISDIHTKLLRLSSSQGTIETSLQDIDSRLSPGGSLADAWAHQEGTHPKDRNVEKLQVLLNCMTEIYYQFKKDKAERRLAYNEEQIHKFDKQKLYYHATKAMTHFTDECVKKYEAFLNKSEEWIRKMLHLRKQLLSLTNQCFDIEEEVSKYQEYTNELQETLPQKMFTASSGIKHTMTPIYPSSNTLVEMTLGMKKLKEEMEGVVKELAENNHILERFGSLTMDGGLRNVDCL
notes: Species follows from the human cell lines; also called endogenous TBK1
Fold Change (differential binding ratio, WT ICOS IP vs mIProx ICOS IP) [2]: 7.69 fold

Second part, the molecule after the results:

Fold Change (differential binding ratio, WT ICOS IP vs mIProx ICOS IP) [1]: 2.17 fold
Molecule: GAK (cell cycle kinase), endogenous, Jurkat cells (from UniProt O14976 2-1311) (enzyme)

Fold Change (differential binding ratio, WT ICOS IP vs mIProx ICOS IP) [1]: 1.81 fold
Molecule: Erlin2 (ER protein), endogenous, Jurkat cells (from UniProt O94905 1-339)

Fold Change (differential binding ratio, WT ICOS IP vs mIProx ICOS IP) [1]: 2.95 fold
Molecule: NAA10 (acetyltransferase), endogenous, Jurkat cells (from UniProt P41227 1-235) (enzyme)

Fold Change (differential binding ratio, WT ICOS IP vs mIProx ICOS IP) [1]: 2.08 fold
Molecule: SLP76 (TCR signaling), endogenous, Jurkat cells (from UniProt Q13094 1-533)

binding result [3]: binds
B2: ICOS with alanine-substituted IProx motif (170…179 to 170AAAAAAAAAA179) (receptor)
chain: T1 sequence with S150A, S151A, S152A, V153A, H154A, D155A, P156A, N157A, G158A, E159A
notes: Expressed from a plasmid in Jurkat JTAg cells; also called mIProx; IProx mutant
